{
  "source": "patent US20190177411",
  "key": {"[1]": {"target": "recombinant Human Pyruvate Dehydrogenase E1-alpha subunit protein (Abcam) (UniProt P08559)", "sequence (P08559 30-390)": "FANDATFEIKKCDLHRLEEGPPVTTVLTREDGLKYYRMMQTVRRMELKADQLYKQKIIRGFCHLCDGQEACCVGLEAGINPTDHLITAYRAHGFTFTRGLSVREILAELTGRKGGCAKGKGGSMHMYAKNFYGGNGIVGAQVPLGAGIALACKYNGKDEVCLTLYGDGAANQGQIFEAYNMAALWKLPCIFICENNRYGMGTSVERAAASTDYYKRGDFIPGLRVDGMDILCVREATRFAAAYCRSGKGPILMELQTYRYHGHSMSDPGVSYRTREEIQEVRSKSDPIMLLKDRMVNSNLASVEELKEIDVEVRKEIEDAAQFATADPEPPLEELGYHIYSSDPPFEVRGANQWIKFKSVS"}, "[2]": {"system": "purified recombinant His-tagged PDK1 (Abcam)", "sequence (chain, as listed by the source)": "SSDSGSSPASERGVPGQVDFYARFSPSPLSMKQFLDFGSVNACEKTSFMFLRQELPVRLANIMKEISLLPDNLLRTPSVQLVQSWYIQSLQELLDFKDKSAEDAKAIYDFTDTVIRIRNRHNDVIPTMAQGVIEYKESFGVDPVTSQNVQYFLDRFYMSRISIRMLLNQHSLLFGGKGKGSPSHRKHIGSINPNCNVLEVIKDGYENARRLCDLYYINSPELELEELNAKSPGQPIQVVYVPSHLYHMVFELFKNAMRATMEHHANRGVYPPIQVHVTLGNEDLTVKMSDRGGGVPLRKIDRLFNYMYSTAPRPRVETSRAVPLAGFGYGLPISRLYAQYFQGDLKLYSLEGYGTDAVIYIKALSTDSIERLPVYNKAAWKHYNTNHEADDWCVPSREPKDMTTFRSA"}},
  "data": [
    {"substance": "Flag-tagged T346A PDK1 mutant", "values": [
      {"measurement": "PDHE1 phosphorylation by Flag immune complexes mixed with recombinant Akt2 and PDHE1, Western blotting", "setting": "[1]", "value": "T346A PDK1 mutant was ineffective"}
    ]},
    {"substance": "Flag-tagged wild type (WT) PDK1 phosphorylated on T346 (by active Akt2 in a kinase assay, or as precipitated from hypoxic PC3 cells)", "values": [
      {"measurement": "PDHE1 phosphorylation by Flag immune complexes mixed with recombinant Akt2 and PDHE1, Western blotting", "setting": "[1]", "value": "WT PDK1 phosphorylated PDHE1 in the presence of Akt2"}
    ]},
    {"substance": "kinase active Akt1 (SignalChem)", "values": [
      {"measurement": "phosphorylation in a kinase assay, Western blotting with Akt cons Ab", "setting": "[2]", "value": "active Akt1 or Akt2 readily phosphorylated PDK1"},
      {"measurement": "phosphorylation site by LC-MS/MS of chymotrypsin digests after a kinase assay", "setting": "[2]", "value": "Thr346 (T346) was identified ... as the sole phospho-amino acid modified by Akt1 or Akt2, compared to control"}
    ]},
    {"substance": "purified recombinant His-tagged PDK1 (Abcam)", "values": [
      {"measurement": "PDHE1 phosphorylation in a kinase assay with recombinant proteins, Western blotting", "setting": "[1]", "value": "active Akt2 increased PDK1 phosphorylation of PDHE1"}
    ]},
    {"substance": "purified recombinant His-tagged PDK2 (Abcam)", "values": [
      {"measurement": "PDHE1 phosphorylation in a kinase assay with active Akt2, Western blotting", "setting": "[1]", "value": "increased PDHE1 phosphorylation was detected only in the presence of Akt2 and PDK1, but not PDK2, PDK3 or PDK4"}
    ]},
    {"substance": "purified recombinant His-tagged PDK3 (Abcam)", "values": [
      {"measurement": "PDHE1 phosphorylation in a kinase assay with active Akt2, Western blotting", "setting": "[1]", "value": "increased PDHE1 phosphorylation was detected only in the presence of Akt2 and PDK1, but not PDK2, PDK3 or PDK4"}
    ]},
    {"substance": "purified recombinant His-tagged PDK4 (Abcam)", "values": [
      {"measurement": "PDHE1 phosphorylation in a kinase assay with active Akt2, Western blotting", "setting": "[1]", "value": "increased PDHE1 phosphorylation was detected only in the presence of Akt2 and PDK1, but not PDK2, PDK3 or PDK4"}
    ]}
  ]
}
